# In the RNAGym collection of RNA variant scans (doi:10.1073/pnas.2313332121):
# B1: TPR t1 (parent)
# chain: GACCAAUCUGCCCUCAGAGCUCGAGAACAUCUUCGGAUGCAGAGGAGGCAGGCUUCGGUGGCGCGAUAGCGCCAACGUCCUCAACCUCCAAUGCAUCCCACCACAUGAUGAUGCCUGAAGAGCCUUGGUUUUUUG
# Variants of: B1
# Test: polymerase ribozyme fitness, log enrichment relative to wild type (log ratio); higher = more active; in vitro selection for triplet polymerase activity
# How it was run: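 Libraries of mutants in each subunit of a heterodimeric triplet polymerase ribozyme were generated by PCR and transcribed. In triplicate, each went through one in vitro selection round: annealing with biotinylated primer, partner subunit and triplets; frozen incubation at −7 °C; gel excision of extended constructs; streptavidin-bead capture; RT-PCR. Fitness, taken from Illumina sequencing of input and output libraries, is the logarithm of a genotype's enrichment over wild-type enrichment, averaged across replicates with inverse-variance weights. The logarithm is base 2, and genotypes needed ≥10 input reads and ≥1 read per output to be kept.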
row,Variant,polymerase ribozyme fitness (log ratio)
1,C73U U125C,-2.06
2,A74C A75U G110A,-1.52
3,C73G G120U,-0.78
4,G77C A83C,-0.826
5,A74G G120C,0.921
6,U78A C102A U112A,-1.54
7,C73U C102A U131A,-1.19
8,A74U C114A U129A,-3.53
9,A74C U92C G127A,-2.3
10,A75G C79U,-0.682
11,A74U A84U U129G,-1.9
12,U78A C94G A118U G120C U132A,-0.124
13,C73G C98U U129C,-1.94
14,G77U C104G,-6.6
15,A75U G110U A121U,-1.08
16,C73U G110A G117A C124U,-4.95
17,C76A C102A,-3.94
18,U78A C79U U112A U131G,0.67
19,A74C C102G U112C,-4.5
20,C76U U129G,-0.833
21,C76U C102U,-2.21
22,G77A U92C G117C,-5.8
23,A74U A105C,-3.15
24,A75G G128A,-1.5

row,Variant,polymerase ribozyme fitness (log ratio)
1,A75G C98U,-0.624
2,C73G C89A C99A G110C,-6.57
3,C73U C86U U96C A119G U131C,0.735
4,C73U U109A,-4.25
5,U78A C94A,-0.841
6,A75U C97U,-0.863
7,C76A A118G,-0.854
8,U78A G117U,-2.81
9,G77A C114G U130C,-2.63
10,C73G G120C U130A,-0.0194
11,A75G U96A U106G,-3.41
12,C73G C123G,1.2
13,G77C U78G U106A,-0.0347
14,A74U U87G U106G A121U,-0.122
15,G77C A95C G113A,-2.42
16,G77C U96C G117A,-2.46
17,A74G G110A A111G,0.0395
18,G77C U130G,-1.48
19,G77A U132C,-0.208
20,A74C G117U,-2.81
21,C73U C85A G120U,-0.527
22,U78A C89G,-1.56
23,A75G A90C C101G,-4.09
24,A74C C104A C114A,-4.14

row,Variant,polymerase ribozyme fitness (log ratio)
1,C73U G93C G113A C124G,-1.29
2,C73G G113C C123U G135A,-3.03
3,A74U C115G U129A U130A,-2.87
4,C76G U130A,-0.718
5,A74G C86U U109A U126G,-5.87
6,U78C A90C,-0.796
7,A74C A83C,-0.243
8,C73U A83U G110A G128U,-4.9
9,G77U U131G,-1.01
10,G77C G120C,0.526
11,C76U G120C,0.737
12,A75G U87A,-0.246
13,C73U A100C,-1.34
14,U78A G135U,-0.889
15,A74U A118U,-0.576
16,A74U G110A C115U,-6.32
17,A74U A119G,0.812
18,C73U C79G A119G C123A,-0.377
19,C76U U78G,-0.0426
20,C76G A119U,-1.37
21,C73U C89A G120U,-2.25
22,U78C A83C C89G,-2.02
23,A75G C82U A83C G93A A105C,-3.08
24,C76U U87A G110A U130G,-2.07

row,Variant,polymerase ribozyme fitness (log ratio)
1,A75G G93C U116A,-4.1
2,C76A C79U A90U A119C G120U,-1.56
3,A75U C104A A121U C124U,0.403
4,U78A A118G,-0.761
5,C76A C98U,-1.53
6,C73G G93U,-3.13
7,C73G G93A,-1.13
8,U78A C114U,-1.83
9,C76G G113U,-4.13
10,A74U U92A,-3.82
11,A74U U92G,-3.01
12,C76A C94A C101A,-2.64
13,C76U C88A U133G,-0.912
14,C73U A95C U130A,-1.26
15,G77C U81G,-1.57
16,U78C A91G,-1.15
17,A74G C79A C82A U112A,-2.42
18,A74C C101G U109A,-6.47
19,C76G C88A C101A U130A,-1.71
20,A74C C82A,-0.0256
21,C73U C99A C115A U125G,-6.08
22,C73U C89G A100U,-2.03
23,C73U A84G,-0.874
24,A75U C99U G120U,-4.3

row,Variant,polymerase ribozyme fitness (log ratio)
1,G77C C124U,1.82
2,G77A C88U,-0.0927
3,C73U C94A C104U G117U,-3.3
4,A74G A119G,0.969
5,C76G G120U U129A,-1.93
6,C76U A118G,-0.0957
7,G77A C86U U112A,1.14
8,G77U U78A A118U,-3.74
9,G77U A95C C102A,-3.06
10,C73U U92A G93A,-4.03
11,C73U A119G C123G,2.02
12,A74U U112A G113C A118C,-3.21
13,C76G U106C G128C,-3.27
14,C73G C85U G117C U133A,-6.98
15,A75G C123U U125G U126A,0.149
16,G77A G110U,-1.1
17,G77A G110A,-1.28
18,A74C U87G U129C,-0.576
19,A74U A75U U81A G127U,-1.96
20,A74C U126G,-2.5
21,C76U C94U C104U U131C,-0.407
22,U78A G120U,-0.295
23,A74C C102U,-1.76
24,A74C C82A G113U C124A G128C U131G,-4.12

row,Variant,polymerase ribozyme fitness (log ratio)
1,C73G C104U,-0.454
2,C73U A83G,-1.56
3,C76A C85G,-1.03
4,C73U U130A U131A,-0.703
5,C76A C102A C123A,-3.55
6,C73U G77C G93A C124U U126G,-1.68
7,A75G C102A,-1.52
8,G77A C79G A100U G113U C123G,-6.77
9,A74G A75U U106G,-1.96
10,C73U U96G,-0.308
11,A74C A100C,-1.06
12,C76U U96G U116G,-3.28
13,C73G U109A C114U C123A U130G U132A,-4.38
14,A74G C102U A119U,-0.954
15,G77A U109C,-3
16,U78A U96C C104U,0.046
17,C76U A121U,2.22
18,C76U A121C,2.01
19,C73G U78A,-0.494
20,C73U A103U,-4.35
21,C73U G77A G120A,0.241
22,U78A G93C,-0.506
23,C73G C82A U92A,-4.06
24,C73G G127U,-1.75

row,Variant,polymerase ribozyme fitness (log ratio)
1,A74C U96G,-1.28
2,C73G C101A,-1.3
3,A74C C80A C101G C123A,-4.26
4,G77A C80A U92C,-5.14
5,G77C C85U,-1.99
6,A74C C97U G120A G122A,-1.46
7,G77A U81C,0.0727
8,C76U C80G U96C G120C,-4.89
9,C73G G117C,-3.91
10,C73G G117A,-0.876
11,C73G G117U,-3.09
12,U78A U87A,-0.201
13,U78A A95U U112G U133A,0.61
14,G77C U78C A105G A119G,-1.64
15,G77U C114G C124G,-1.15
16,C73U C104A,-1.22
17,A74C C94U,-0.6
18,C73G C124U,0.25
19,U78A G113C U130C,-3.05
20,A74U C82G C123U U131A U134C,0.478
21,C76A C82U A95G C104G G120C,-5.79
22,C73U,0.0933
23,C76G G122A,-1.36
